The source of these data is paper PMC10746679, “Mutations F352A and Y528A in human HSP90α reduce fibronectin association and fibrillogenesis in cell-derived matrices” (Cell Stress & Chaperones, 2023).

The experiment has as its target Full-length fibronectin (UniProt P02751 32-2477). Put plainly: ELISA; solid-phase binding assay; FN-FL or FN70 coated on high-binding plates (25 μg/ml by the legend), blocked with 3% BSA in Buffer A; wild type or mutant His-HSP90α at varying concentrations added overnight at 4 °C; detected with anti-HSP90α antibody, HRP secondary, absorbance 450 nm. The conditions noted are these: both partners purified. (ELISA stands for enzyme-linked immunosorbent assay.)

Chain of Full-length fibronectin (P02751 other isoform, or with tags, fused parts or gaps, chain 1 of 2): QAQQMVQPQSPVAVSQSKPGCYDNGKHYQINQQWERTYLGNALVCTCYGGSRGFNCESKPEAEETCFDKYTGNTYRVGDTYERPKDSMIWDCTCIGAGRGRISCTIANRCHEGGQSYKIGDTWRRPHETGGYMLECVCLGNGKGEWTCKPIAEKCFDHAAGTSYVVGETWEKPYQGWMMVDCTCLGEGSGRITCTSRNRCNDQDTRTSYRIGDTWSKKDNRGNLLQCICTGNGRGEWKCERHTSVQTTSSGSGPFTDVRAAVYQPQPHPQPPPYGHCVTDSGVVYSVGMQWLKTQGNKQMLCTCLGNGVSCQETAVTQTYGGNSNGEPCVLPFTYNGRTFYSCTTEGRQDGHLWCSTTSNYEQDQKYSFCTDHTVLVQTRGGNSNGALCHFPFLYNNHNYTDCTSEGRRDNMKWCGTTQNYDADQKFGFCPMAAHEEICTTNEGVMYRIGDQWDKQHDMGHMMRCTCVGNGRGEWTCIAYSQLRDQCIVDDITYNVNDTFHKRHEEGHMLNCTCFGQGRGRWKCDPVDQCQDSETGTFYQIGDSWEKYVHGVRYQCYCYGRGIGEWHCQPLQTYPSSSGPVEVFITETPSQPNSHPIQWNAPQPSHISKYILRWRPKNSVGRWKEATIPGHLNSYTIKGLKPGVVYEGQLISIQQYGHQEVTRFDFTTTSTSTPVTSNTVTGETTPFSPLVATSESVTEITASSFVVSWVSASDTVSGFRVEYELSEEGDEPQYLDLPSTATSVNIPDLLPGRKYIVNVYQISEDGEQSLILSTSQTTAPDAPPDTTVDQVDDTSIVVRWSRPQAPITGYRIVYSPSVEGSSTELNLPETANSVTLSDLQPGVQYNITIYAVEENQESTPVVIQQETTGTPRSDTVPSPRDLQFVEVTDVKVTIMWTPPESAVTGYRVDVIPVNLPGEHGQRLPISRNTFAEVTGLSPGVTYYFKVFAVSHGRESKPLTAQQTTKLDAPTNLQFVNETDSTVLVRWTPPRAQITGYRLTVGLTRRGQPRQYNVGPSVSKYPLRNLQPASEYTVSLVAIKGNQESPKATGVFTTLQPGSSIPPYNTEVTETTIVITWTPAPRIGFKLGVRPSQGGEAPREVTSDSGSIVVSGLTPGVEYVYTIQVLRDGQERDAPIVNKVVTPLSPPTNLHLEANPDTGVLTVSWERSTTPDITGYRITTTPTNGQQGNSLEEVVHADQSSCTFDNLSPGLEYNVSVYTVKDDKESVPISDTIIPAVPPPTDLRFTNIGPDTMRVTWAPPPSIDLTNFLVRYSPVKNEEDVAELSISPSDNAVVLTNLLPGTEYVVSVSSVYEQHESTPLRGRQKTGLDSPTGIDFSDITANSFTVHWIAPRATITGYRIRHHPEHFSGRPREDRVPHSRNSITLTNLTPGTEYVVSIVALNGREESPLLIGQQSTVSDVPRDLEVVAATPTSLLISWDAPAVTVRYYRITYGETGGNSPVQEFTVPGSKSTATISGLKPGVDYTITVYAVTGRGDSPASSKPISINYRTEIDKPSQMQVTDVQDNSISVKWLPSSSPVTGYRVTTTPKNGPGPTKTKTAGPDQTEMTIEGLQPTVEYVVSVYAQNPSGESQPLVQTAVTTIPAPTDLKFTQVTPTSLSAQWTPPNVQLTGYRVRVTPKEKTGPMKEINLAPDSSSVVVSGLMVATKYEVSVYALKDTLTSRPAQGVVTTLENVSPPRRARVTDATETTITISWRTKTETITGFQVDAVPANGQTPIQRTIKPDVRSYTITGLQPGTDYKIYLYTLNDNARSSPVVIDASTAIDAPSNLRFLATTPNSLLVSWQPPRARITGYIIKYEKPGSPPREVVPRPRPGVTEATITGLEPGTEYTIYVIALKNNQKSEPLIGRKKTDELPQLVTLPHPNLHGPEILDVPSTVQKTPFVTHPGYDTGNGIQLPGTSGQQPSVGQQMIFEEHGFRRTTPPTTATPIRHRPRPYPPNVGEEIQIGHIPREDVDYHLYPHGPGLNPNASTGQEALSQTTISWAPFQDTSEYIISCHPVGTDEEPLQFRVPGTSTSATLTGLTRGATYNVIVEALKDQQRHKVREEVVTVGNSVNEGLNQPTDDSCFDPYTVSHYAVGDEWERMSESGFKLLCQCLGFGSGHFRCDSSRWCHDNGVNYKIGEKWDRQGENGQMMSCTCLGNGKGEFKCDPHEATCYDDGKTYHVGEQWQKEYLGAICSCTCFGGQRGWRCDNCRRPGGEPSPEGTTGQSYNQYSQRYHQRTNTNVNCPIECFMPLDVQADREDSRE
Chain of Full-length fibronectin (P02751 other isoform, or with tags, fused parts or gaps, chain 2 of 2): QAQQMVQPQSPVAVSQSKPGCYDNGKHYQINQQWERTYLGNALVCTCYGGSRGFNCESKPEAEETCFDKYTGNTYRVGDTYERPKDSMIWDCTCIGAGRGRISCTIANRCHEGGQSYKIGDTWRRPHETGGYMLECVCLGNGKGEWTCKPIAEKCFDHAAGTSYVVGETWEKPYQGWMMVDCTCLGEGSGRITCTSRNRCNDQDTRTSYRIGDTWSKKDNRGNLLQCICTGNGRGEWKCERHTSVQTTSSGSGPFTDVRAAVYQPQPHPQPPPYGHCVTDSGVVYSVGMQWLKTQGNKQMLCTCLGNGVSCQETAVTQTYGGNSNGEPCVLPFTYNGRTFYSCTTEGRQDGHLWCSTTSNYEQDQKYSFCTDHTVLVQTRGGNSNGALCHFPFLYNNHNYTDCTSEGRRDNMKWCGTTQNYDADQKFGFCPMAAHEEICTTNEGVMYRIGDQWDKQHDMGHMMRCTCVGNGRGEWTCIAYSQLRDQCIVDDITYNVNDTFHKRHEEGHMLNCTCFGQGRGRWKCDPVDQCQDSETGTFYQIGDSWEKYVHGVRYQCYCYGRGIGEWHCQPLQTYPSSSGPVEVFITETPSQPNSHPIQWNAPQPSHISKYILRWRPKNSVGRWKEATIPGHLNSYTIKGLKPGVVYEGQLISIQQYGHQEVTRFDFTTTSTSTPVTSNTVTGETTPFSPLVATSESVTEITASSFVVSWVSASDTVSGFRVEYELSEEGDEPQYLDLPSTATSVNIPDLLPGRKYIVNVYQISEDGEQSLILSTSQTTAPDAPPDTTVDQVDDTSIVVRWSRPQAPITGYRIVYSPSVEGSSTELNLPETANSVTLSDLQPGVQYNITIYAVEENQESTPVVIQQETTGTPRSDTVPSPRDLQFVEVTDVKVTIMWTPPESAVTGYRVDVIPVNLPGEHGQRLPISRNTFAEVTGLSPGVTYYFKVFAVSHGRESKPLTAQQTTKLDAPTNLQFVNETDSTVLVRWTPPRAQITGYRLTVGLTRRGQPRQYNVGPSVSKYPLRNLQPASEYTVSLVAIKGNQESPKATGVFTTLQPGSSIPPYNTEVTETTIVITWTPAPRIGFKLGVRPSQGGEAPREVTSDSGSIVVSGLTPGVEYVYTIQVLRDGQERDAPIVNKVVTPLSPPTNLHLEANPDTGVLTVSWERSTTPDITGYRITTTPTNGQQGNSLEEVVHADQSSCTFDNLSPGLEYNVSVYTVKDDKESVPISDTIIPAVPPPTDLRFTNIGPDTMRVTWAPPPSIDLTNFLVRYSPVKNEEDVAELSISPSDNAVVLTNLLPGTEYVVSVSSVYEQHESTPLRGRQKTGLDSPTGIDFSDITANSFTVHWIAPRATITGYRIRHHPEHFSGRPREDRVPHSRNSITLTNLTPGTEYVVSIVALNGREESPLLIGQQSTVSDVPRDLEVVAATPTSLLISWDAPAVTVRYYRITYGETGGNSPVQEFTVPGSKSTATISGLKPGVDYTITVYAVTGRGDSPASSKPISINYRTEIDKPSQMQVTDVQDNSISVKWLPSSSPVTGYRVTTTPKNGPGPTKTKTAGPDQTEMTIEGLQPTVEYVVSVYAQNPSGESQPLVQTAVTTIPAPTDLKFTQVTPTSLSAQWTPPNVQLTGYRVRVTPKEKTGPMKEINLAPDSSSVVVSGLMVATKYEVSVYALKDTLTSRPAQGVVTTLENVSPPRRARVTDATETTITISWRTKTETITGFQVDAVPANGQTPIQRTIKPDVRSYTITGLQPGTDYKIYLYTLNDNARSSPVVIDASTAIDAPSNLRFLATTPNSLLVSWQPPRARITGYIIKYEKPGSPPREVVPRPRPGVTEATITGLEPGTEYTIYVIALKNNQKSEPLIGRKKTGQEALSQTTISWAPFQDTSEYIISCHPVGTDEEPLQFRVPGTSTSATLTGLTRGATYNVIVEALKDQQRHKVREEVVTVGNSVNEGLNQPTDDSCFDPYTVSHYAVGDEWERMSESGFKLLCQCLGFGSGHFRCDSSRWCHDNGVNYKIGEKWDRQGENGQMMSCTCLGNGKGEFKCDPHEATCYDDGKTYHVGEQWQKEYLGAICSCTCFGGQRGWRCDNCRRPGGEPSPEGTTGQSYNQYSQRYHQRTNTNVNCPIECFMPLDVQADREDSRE

B1: His-HSP90α-R620A (natural protein)
chain: not shown
notes: Heat shock protein HSP 90-alpha, human, point mutant of the full-length His-HSP90α
Regarding B1, the “percent reduction in binding against wild type His-HSP90α” value (shortened to “percent reduction in binding”) was ~25%.

B2: His-HSP90α-H450A (natural protein)
chain: not shown
notes: as for B1
In the case of B2, the “percent reduction in binding” value is ~25%.

B3: His-HSP90α-Y528A (natural protein)
chain: not shown
notes: as for B1
With B3, the “percent reduction in binding” value is ~25%.

B4: His-HSP90α-E353A (natural protein)
chain: not shown
notes: as for B1
For the molecule B4, the “percent reduction in binding” value is ~25%.

B5: His-HSP90α-F352A (natural protein)
chain: not shown
notes: as for B1
For B5, the “percent reduction in binding” value was ~40%.
